According to US20230014722A1:

Target: cynomolgus PD-1 (Sino Biological), coated on plates (cynomolgus) (UniProt B0LAJ3)
Test: ELISA, plates coated with cynomolgus PD-1 at 1 µg/ml

Chain of cynomolgus PD-1 (Sino Biological), coated on plates (cynomolgus) (B0LAJ3 entry or part of it limits assumed): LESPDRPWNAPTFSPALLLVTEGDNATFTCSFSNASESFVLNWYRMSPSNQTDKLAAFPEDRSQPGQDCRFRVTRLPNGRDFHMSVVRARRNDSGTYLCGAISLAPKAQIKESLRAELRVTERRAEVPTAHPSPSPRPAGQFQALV

Question: With Keytruda (antibody) as the substance, how does the EC50 read?
Answer: 0.23 nM
